Results reported in publication PMC9477564 (Nature structural & molecular biology, 2021).

Target: the molecule itself
Experiment: SEC-MALS

B1: Get3(D68N) (enzyme)
chain: not shown
  stoichiometry N: 2
